According to US20240175042:

Columns and labels:
[1] = molecular target: EIN2-CEND (co-expressed in Arabidopsis mesophyll protoplasts) (UniProt Q9S814)
His6-EBF2 (purified) = His6-EBF2 (purified) (UniProt Q708Y0)
His6-EBF2 (purified), sequence (Q708Y0 whole entry): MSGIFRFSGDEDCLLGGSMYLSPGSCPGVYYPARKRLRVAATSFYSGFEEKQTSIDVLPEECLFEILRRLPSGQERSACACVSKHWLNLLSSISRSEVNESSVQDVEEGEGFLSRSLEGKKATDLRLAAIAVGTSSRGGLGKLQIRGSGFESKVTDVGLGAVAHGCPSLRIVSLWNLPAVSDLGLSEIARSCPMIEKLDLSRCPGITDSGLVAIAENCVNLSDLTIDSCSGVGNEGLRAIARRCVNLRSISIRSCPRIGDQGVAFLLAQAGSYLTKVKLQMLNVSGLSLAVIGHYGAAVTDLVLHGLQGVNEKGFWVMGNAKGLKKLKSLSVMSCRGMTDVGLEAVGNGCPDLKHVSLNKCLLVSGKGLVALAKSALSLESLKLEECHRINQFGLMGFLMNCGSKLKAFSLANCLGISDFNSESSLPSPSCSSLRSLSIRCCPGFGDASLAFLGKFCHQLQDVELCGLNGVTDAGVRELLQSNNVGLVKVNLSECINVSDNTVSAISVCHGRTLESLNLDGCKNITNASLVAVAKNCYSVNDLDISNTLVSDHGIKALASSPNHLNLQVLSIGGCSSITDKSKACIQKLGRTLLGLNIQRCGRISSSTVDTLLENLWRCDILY

EIN2-CEND (co-expressed in Arabidopsis mesophyll protoplasts), sequence (Q9S814 462-1294): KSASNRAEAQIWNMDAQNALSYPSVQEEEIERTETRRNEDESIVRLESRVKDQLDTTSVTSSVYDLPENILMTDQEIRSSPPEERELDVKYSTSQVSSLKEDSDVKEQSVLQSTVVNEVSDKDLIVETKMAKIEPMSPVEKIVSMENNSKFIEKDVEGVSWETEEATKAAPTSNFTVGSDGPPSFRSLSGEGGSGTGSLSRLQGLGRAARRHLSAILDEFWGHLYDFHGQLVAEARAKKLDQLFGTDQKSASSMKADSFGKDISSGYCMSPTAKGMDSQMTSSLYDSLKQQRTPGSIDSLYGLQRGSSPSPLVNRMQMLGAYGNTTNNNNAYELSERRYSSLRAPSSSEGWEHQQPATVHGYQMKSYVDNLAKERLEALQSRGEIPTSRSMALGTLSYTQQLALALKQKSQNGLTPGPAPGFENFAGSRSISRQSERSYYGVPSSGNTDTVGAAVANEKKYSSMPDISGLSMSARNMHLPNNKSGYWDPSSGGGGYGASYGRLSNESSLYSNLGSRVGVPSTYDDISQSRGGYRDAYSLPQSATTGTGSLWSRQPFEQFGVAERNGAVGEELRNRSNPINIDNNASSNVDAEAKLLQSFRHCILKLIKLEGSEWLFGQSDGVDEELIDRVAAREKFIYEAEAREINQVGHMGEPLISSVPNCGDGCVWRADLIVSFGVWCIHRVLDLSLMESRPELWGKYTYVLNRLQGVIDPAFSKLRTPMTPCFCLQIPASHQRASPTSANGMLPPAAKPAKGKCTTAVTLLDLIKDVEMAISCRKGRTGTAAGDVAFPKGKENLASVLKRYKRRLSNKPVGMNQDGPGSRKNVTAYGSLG
CTR1-KD (wild-type CTR1 kinase domain lacking the N-terminal domain, expressed in Arabidopsis mesophyll protoplasts), sequence (chain, as listed by the source): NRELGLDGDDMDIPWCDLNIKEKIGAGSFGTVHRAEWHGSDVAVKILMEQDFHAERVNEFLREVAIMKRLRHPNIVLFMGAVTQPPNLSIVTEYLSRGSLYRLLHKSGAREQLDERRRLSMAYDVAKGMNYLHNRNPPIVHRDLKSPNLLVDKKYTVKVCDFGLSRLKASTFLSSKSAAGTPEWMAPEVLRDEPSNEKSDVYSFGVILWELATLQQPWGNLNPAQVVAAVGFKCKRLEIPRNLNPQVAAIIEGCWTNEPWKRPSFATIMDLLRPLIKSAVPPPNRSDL
CTR1-KD^AAA (CTR1 kinase domain with T704A/S707A/S710A, expressed in Arabidopsis mesophyll protoplasts), sequence (chain, as listed by the source T704A S707A S710A): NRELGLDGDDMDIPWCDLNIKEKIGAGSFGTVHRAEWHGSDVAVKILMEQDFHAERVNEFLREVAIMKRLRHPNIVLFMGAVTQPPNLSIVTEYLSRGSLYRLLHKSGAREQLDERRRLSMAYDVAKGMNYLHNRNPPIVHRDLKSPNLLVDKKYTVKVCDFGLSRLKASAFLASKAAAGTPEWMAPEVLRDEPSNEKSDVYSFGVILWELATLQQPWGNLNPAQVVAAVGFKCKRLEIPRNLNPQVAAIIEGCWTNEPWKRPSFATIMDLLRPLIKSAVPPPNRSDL
His6-CTR1-KD^WT (purified CTR1 kinase domain, residues 531-821), sequence (chain, as listed by the source): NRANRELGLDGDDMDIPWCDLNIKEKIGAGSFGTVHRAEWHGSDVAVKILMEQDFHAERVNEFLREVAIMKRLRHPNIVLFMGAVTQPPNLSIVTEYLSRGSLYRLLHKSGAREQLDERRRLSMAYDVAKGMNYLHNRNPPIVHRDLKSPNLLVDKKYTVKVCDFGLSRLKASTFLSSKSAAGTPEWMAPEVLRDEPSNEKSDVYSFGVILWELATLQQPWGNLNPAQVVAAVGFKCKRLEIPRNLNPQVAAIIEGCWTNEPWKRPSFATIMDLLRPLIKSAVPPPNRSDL

CTR1-KD (wild-type CTR1 kinase domain lacking the N-terminal domain, expressed in Arabidopsis mesophyll protoplasts)
Phos-tag gel band shift of EIN2-CEND on co-expression in Arabidopsis mesophyll protoplasts [1]: Wild-type CTR1-KD, but not CTR1-KD^AAA, phosphorylated EIN2-CEND when co-expressed in Arabidopsis mesophyll protoplasts

CTR1-KD^AAA (CTR1 kinase domain with T704A/S707A/S710A, expressed in Arabidopsis mesophyll protoplasts)
Phos-tag gel band shift of EIN2-CEND on co-expression in Arabidopsis mesophyll protoplasts [1]: Wild-type CTR1-KD, but not CTR1-KD^AAA, phosphorylated EIN2-CEND when co-expressed in Arabidopsis mesophyll protoplasts

His6-CTR1-KD^WT (purified CTR1 kinase domain, residues 531-821)
in vitro kinase assay ([γ-32P]ATP incorporation, autoradiography) (His6-EBF2 (purified)): in vitro kinase assay demonstrated that CTR1 does not phosphorylate EBF2
